System: MS2 coat protein
Assay: apparent KD of MS2 coat protein; designed switch direction (-1 OFF switch, 1 ON switch): -1; higher = weaker reporter binding
In short: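 Designed RNA switches were transcribed on Illumina chips by stalled E. coli RNA polymerase and titrated with SNAP-549-labelled MS2 coat protein from 0.7 or 1.5 nM, doubling to 3 µM. Step length ran from 0.8–1.5 h at the lowest concentration to 10–20 min at the highest. The apparent KD is the median over clusters for each design, from curve-fitted normalised cluster fluorescence.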

[1] = Eterna round: R95, input ligand: FMN 200 uM
[2] = Eterna round: R95, input ligand: microRNA oligo, concentration not stated
[3] = Eterna round: R95, input ligand: none
[4] = input ligand: microRNA oligo, concentration not stated

| Sequence | apparent KD of MS2 coat protein [2] | apparent KD of MS2 coat protein (input ligand: FMN 200 uM) | apparent KD of MS2 coat protein (input ligand: none) | other results |
| --- | --- | --- | --- | --- |
| UCGACCGGAGGAUAUUACGUAAAGUACAUGAGGAUCACCCAUGUGUGGUACCUCGAGUCGUAAGAAGGCCGAAAUA [Teisor] (puzzle: Exclusion 5) | 0.605 µM |  |  | apparent KD of MS2 coat protein [1]: 0.283 µM; apparent KD of MS2 coat protein [3]: 0.505 µM |
| UCGAUGUGAGGAUAUAUUUUUUUUUUUCCUUAUGUUUUAUAACUUGAGGAUCACCCAAGUAGAAGGCGCUACGU [JR_Ex2_Sub063] (Eterna round: R97, puzzle: Exclusion 2) |  | 0.0706 µM | 0.136 µM |  |
| UCGCUCCGUGUAGGAUAUCGCCGUACUAUUCGGCGAGAAGGACAUGAGGAUCACCCAUGUAUGUUAUUAUCACGCGUGGCGCAA [Design 59] (Eterna round: R96, puzzle: Exclusion NG 1) |  | 0.0203 µM | 0.0169 µM | apparent KD of MS2 coat protein [4]: 0.0152 µM |
| UCGCUGCGAGGAUAUACAUGAGGAUCACCCAUGUACGGGUCCGGGUCUUCGUCCAUUGGUAGAAGGCGCAGUGA [JL Laongeedie mod 7] (puzzle: Exclusion 3) | 0.0225 µM |  |  |  |
| UCGCUGCGAGGAUAUACAUGAGGAUCACCCAUGUACGGGUCCGGGUCUUUGUCGAUUGGUAGAAGGCGCAGUGA [JL Laongeedie mod 10] (puzzle: Exclusion 3) | 0.0503 µM |  |  |  |
| UCGCUGCGAGGAUAUACAUGAGGAUCACCCAUGUGCGGGUCCGGGUCUUUGUCCAUUAGUAGAAGGCGCAGUGA [JL Laongeedie mod 5] (puzzle: Exclusion 3) | 0.225 µM |  |  |  |
| UCUCGACAUGAGGAUCACCCAUGUCAGGAUAUUGUAUUGGAGGUUUUUUACCUUAUGGCAAGAAGGGAUGUGUG [LRO-Excl1-24] (puzzle: Exclusion 1) | 0.0183 µM |  |  |  |
| UCUCGCAGGCAAGGAUAUCCUACAUUGUUCUGGCCCGGGCAUGUUACAUGAGGAUCACCCAUGUGGGAGAAGGUGCGCCAGGGC [Design 34] (Eterna round: R96, puzzle: Exclusion NG 2) |  | 0.0306 µM | 0.0306 µM | apparent KD of MS2 coat protein [4]: 0.0163 µM |
| UCUGCAACGCAAGGAUAUCUUAGAGUUGAAGAAAGAGAAGGUGCAGGUGAUAACAUGCCCGUAACAUGAGGAUCACCCAUGUAA [Eternabot solution 48] (Eterna round: R96, puzzle: Exclusion NG 1) |  | 0.0961 µM | 0.0793 µM | apparent KD of MS2 coat protein [4]: 0.0683 µM |
| UCUGCCGCCGUGAGGAUAUGCCCGCGCGAACGCGGGCAGAAGGCACAUGAGGAUCACCCAUGUCCCGCGGUUUU [salish99_bmx4_r4_132] (Eterna round: R97, puzzle: Brourd's mod of Exclusion 4) |  | 0.0347 µM | 0.0172 µM |  |
| UCUGGUCGAGGAUAUACGUGAGGUGUUUCGGCACUAGGUCUACAUGAGGAUCACCCAUGUAGAAGGCGAUCAGA [EX2 #64] (Eterna round: R97, puzzle: Exclusion 2) |  | 0.536 µM | 0.0606 µM |  |
| UCUGGUCGAGGAUAUAUAUGACGUGCUUCGGCACGAAGGUCACAUGAGGAUCACCCAUGUAGAAGGCGACCAGA [E2/9-A3] (Eterna round: R97, puzzle: Exclusion 2) |  | 0.375 µM | 0.0521 µM |  |
| UCUGUUAUGCGAGGAUAUCGACCAUUCCUCUUAACAUGAGGAUCACCCAUGUGCUAAUCCUUCAACGAGAAGGCGCUCUUACUC [JR_ExcNG2_Sub069] (Eterna round: R96, puzzle: Exclusion NG 2) |  | 0.346 µM | 0.268 µM | apparent KD of MS2 coat protein [4]: 0.114 µM |
| UCUUAUUGCAAGGAUAUGCUUUUUAUUUCUUUUGCAGAAGGUGCAACAUGAGGAUCACCCAUGUUUCCGGGUAU [JR_E6_Sub034] (puzzle: Exclusion 6) | 0.0238 µM |  |  |  |
| UCUUCACAUGAGGAUCACCCAUGUGAGGAUAUGGUUUCGCUGGCCGUAGCCAGUGGAACCAGAAGGCGCAUGAU [Mat - Exclusion 1 - JL Mod - D7] (Eterna round: R97, puzzle: Exclusion 1) |  | 0.0215 µM | 0.0261 µM |  |
| UCUUGCUGGCGAGGAUAUCCUGUGCGGUUCCGGCUCGUGUCUGUUACAUGAGGAUCACCCAUGUGGGAGAAGGUGUCUGUGGCC [Design 97] (Eterna round: R96, puzzle: Exclusion NG 2) |  | 0.0186 µM | 0.0219 µM | apparent KD of MS2 coat protein [4]: 0.0167 µM |

| Sequence | apparent KD of MS2 coat protein [2] | apparent KD of MS2 coat protein (input ligand: FMN 200 uM) | apparent KD of MS2 coat protein (input ligand: none) | other results |
| --- | --- | --- | --- | --- |
| UGAAAGGUAGGAUAUACGAAGAAAAAGGGUAGAAUAAUAACACAUGAGGAUCACCCAUGUAGAAGGACCAAAGG [Mat - Exclusion 2 - Mod of my Tesla design - D9] (puzzle: Exclusion 2) | 0.0232 µM |  |  | apparent KD of MS2 coat protein [1]: 0.0701 µM; apparent KD of MS2 coat protein [3]: 0.0252 µM |
| UGAAUGUCAGAGGAUAUGCACGAUUGGACCGAGGCAGAAGGCUGAACAUGAGGAUCACCCAUGUCAAGAUCUUC [Eternabot (L1) Solution 93] (Eterna round: R97, puzzle: Exclusion 6) |  | 0.18 µM | 0.0263 µM |  |
| UGAGAACAUGAGGAUCACCCAUGUAAGGAUAUGCGAAGAGUUUGGAGAGGUUGAGGAGGCAGAAGGUACGGGAG [JR_Exclu1_Sub045] (puzzle: Exclusion 1) | 0.0499 µM |  |  | apparent KD of MS2 coat protein [1]: 0.0502 µM; apparent KD of MS2 coat protein [3]: 0.0743 µM |
| UGAGCUGAAGGAUAUGCGUAAUCACGGUGACGUGUAGAUCUACAUGAGGAUCACCCAUGUAGAAGGUCAGUUCU [Mat - Exclusion 2 - JL Mod - D33] (Eterna round: R97, puzzle: Exclusion 2) |  | 0.017 µM | 0.0161 µM |  |
| UGAGCUUCAGGAUAUACGUGACGUCCGUGAGGACGAAGGUUACAUGAGGAUCACCCAUGUAGAAGGGAAGUUCU [Mat - Exclusion 2 - JL Mod - D31] (Eterna round: R97, puzzle: Exclusion 2) |  | 0.0608 µM | 0.0316 µM |  |
| UGAGUGCGUGUUAGGAUAUGGUUUGGUAUUUCGGGCUAGAAGGGACAUGAGGAUCACCCAUGUAAUUGGCGGGU [-17.2, -16.9 kcal, 22% A] (Eterna round: R97, puzzle: Brourd's mod of Exclusion 4) |  | 0.259 µM | 0.227 µM |  |
| UGAGUGUUAGGAUAUCGCGGUUAGGCGAGUUGCUUAAUGAUCGAGAAGGGACAUGAGGAUCACCCAUGUGGGAC [Eternabot (L1) Solution 40] (Eterna round: R97, puzzle: Exclusion 4) |  | 0.127 µM | 0.112 µM |  |
| UGAUCUAGCGGAGGAUAUACAUGAGGAUCACCCAUGUAUAGUCCAUGUGGUGACACGUGGAACAUGUAGAAGGCCGCUAGAUCU [JL ENG2 3.83] (Eterna round: R96, puzzle: Exclusion NG 2) |  | 0.228 µM | 0.0231 µM | apparent KD of MS2 coat protein [4]: 0.0248 µM |
| UGAUCUAGGCGAGGAUAUACAUGAGGAUCACCCAUGUAAACGUGACAUGAAAACAUGUCACGAAUGUAGAAGGCGCCUAGAUCU [JL ENG2 3.54] (Eterna round: R96, puzzle: Exclusion NG 2) |  | 0.0217 µM | 0.0133 µM | apparent KD of MS2 coat protein [4]: 0.0132 µM |
| UGAUCUUUUGUUAGGAUAUGCUGUUGUUUUCAACAGCAGAAGGGACAUGAGGAUCACCCAUGUCUUGUCAUAAA [Magic-04] (puzzle: Brourd's mod of Exclusion 4) | 0.0127 µM |  |  |  |
| UGAUCUUUUGUUAGGAUAUGCUGUUUUUUUUUACAGCAGAAGGGACAUGAGGAUCACCCAUGUCUUGUCAUAAA [Magic-05] (puzzle: Brourd's mod of Exclusion 4) | 0.0124 µM |  |  |  |
| UGAUGACAUGAGGAUCACCCAUGUCAGGAUAUGCUUCGGCUUCGGAAAUGAAGUUGAAGUAGAAGGGACUGUCG [-27.1, -24.1 kcal, A 28% sequence 3 bis] (Eterna round: R97, puzzle: Exclusion 1) |  | 0.0377 µM | 0.0278 µM |  |
| UGAUGUACUCAGGAUAUGAGUAGCUUUCGAGCAUCAGAAGGGAGUACAUGAGGAUCACCCAUGUUGGCCAUGUU [EX6 C.9] (Eterna round: R97, puzzle: Exclusion 6) |  | 0.0812 µM | 0.683 µM |  |
| UGAUUCCUAGGAUAUGCUGGAUAUGAGGUCCCGAGUUGCCGACAUGAGGAUCACCCAUGUAGAAGGAGGUGUCG [Eternabot (L1) Solution 66] (Eterna round: R97, puzzle: Exclusion 2) |  | 0.199 µM | 0.105 µM |  |
| UGCAAGCUUUUAAGAUCCUACAUGAGGAUCACCCAUGUGGCUCGUCUUAUACGUACUGUGACGAAAGUCACGGUACG [JL TOV1 3.98] (Eterna round: R97, puzzle: Sensor, turn-off variant 1) |  | 0.0254 µM | 0.0228 µM |  |
| UGCAAGCUUUUGAGAUCCUACAUGAGGAUCACCCAUGUGCUCGUCUUAUAACGUACUGUGACGAAAGUCACGGUACG [JL TOV1 3.97] (Eterna round: R97, puzzle: Sensor, turn-off variant 1) |  | 0.184 µM | 0.222 µM |  |
